Blank lines part the entries; values can stand above or below the molecule they belong to.
Key:
[1] = molecular target: Recombinant Cas6-1 (Sso1437) (S. solfataricus) (UniProt Q97Y96); experiment: SEC; recombinant Cas6-1 alone on Superdex 200 in GF buffer (20 mM sodium phosphate pH 7.5, 250 mM NaCl, 5 mM EDTA, 0.5 mM DTT)
[2] = molecular target: T1, Cas6-1 (Saccharolobus/Sulfolobus solfataricus P2, UniProt Q97Y96 1-287); experiment: fluorescence quenching; 25 C; apparent Kd, fit with variable Hill coefficient; partial cleavage not ruled out; EMSA: NR buffer (composition not in material) with 2 uM BSA, 0.5 nM RNA (legend: 1 nM), 15 min at 20 C, 6% native PAGE in 1x TBE; fluorescence quenching at 25 C, buffer not in material; details: protein: recombinant; chain copies: 2; label: 5'-FAM
T1 sequence: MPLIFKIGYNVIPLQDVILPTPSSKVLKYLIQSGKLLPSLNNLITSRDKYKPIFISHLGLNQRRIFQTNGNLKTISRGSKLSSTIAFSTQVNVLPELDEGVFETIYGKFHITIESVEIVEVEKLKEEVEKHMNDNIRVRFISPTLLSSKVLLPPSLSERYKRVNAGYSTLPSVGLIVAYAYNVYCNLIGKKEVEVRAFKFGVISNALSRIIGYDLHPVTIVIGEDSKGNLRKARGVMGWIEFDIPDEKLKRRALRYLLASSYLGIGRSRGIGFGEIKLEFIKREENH

[3] = molecular target: T1, Cas6-1; experiment: fluorescence quenching; 25 C; apparent Kd, fit with variable Hill coefficient; EMSA: NR buffer (composition not in material) with 2 uM BSA, 0.5 nM RNA (legend: 1 nM), 15 min at 20 C, 6% native PAGE in 1x TBE; fluorescence quenching at 25 C, buffer not in material; details: protein: recombinant; chain copies: 2; label: 5'-FAM
[4] = molecular target: T1, Cas6-1; experiment: EMSA; 20 C; apparent Kd, intermediate shifted species; EMSA: NR buffer (composition not in material) with 2 uM BSA, 0.5 nM RNA (legend: 1 nM), 15 min at 20 C, 6% native PAGE in 1x TBE; fluorescence quenching at 25 C, buffer not in material; details: protein: recombinant; chain copies: 2; label: 5'-32P
[5] = molecular target: T1, Cas6-1; experiment: EMSA; 20 C; apparent Kd, no intermediate bands; EMSA: NR buffer (composition not in material) with 2 uM BSA, 0.5 nM RNA (legend: 1 nM), 15 min at 20 C, 6% native PAGE in 1x TBE; fluorescence quenching at 25 C, buffer not in material; details: protein: recombinant; chain copies: 2; label: 5'-32P
[6] = molecular target: the molecule itself; experiment: SEC; S. solfataricus cell lysate on Superdex 200 in GF buffer (20 mM sodium phosphate pH 7.5, 250 mM NaCl, 5 mM EDTA, 0.5 mM DTT); 2 ml fractions analysed by western blotting

- stoichiometry N [1]: 2
Molecule: Recombinant Cas6-1 (Sso1437) (from UniProt Q97Y96 1-287) (enzyme)

Molecule: UGAUAAUCUCUUAUAGAAUUGAAAG (ssRNA) [FAM-CD repeat RNA]
- Kd [2]: ~14 nM

Molecule: UGAUAAUCUCUUAUAGA (ssRNA, 3'-phosphate) [FAM-CDproduct RNA]
- Kd [3]: ~14 nM

Molecule: GAUAAUCUCUUAUAGAAUUGAAAG (ssRNA) [CD-repeat RNA (32P)]
- Kd [4]: ~16 nM

Molecule: GAUUAAUCCCAAAAGGAAUUGAAAG (ssRNA) [AB-repeat RNA (32P)]
- Kd [5]: 350 nM

B1: Cmr7 (Sso1986) subunit of CMR, free protein in the lysate (natural protein, UniProt Q97WX5 1-197, looked up)
chain: MTSGAGWEEQVFLPITNSISSEDNNQIKIGSSVSIEYNQNGQHVSQIDDKGLHNILVLTGYAIDESTGELVPTFDPCDYVKGILISGKILKGNHFKIIGIPSNKLYIIRKKDVHGNITFSLPIKNFNTGTYQVDLRDKVTSFVSLDRDVAKTIVDNVLAKIYAKIYNSLNKEQKDKLYRDVEEIFNYYSIKSLKSNP
notes: Cmr7 (Sso1986), subunit of the CMR complex of Sulfolobus solfataricus; also called dimeric Cmr7 protein; source: endogenous, S. solfataricus lysate
- stoichiometry N [6]: 2

Source: PMC4041471, “Cas6 specificity and CRISPR RNA loading in a complex CRISPR-Cas system” (Nucleic Acids Research, 2014)
